In IntAct's records for PubMed 29176668:

Molecular target: ATP2A2, P16615-1
Sequence (P16615 whole entry): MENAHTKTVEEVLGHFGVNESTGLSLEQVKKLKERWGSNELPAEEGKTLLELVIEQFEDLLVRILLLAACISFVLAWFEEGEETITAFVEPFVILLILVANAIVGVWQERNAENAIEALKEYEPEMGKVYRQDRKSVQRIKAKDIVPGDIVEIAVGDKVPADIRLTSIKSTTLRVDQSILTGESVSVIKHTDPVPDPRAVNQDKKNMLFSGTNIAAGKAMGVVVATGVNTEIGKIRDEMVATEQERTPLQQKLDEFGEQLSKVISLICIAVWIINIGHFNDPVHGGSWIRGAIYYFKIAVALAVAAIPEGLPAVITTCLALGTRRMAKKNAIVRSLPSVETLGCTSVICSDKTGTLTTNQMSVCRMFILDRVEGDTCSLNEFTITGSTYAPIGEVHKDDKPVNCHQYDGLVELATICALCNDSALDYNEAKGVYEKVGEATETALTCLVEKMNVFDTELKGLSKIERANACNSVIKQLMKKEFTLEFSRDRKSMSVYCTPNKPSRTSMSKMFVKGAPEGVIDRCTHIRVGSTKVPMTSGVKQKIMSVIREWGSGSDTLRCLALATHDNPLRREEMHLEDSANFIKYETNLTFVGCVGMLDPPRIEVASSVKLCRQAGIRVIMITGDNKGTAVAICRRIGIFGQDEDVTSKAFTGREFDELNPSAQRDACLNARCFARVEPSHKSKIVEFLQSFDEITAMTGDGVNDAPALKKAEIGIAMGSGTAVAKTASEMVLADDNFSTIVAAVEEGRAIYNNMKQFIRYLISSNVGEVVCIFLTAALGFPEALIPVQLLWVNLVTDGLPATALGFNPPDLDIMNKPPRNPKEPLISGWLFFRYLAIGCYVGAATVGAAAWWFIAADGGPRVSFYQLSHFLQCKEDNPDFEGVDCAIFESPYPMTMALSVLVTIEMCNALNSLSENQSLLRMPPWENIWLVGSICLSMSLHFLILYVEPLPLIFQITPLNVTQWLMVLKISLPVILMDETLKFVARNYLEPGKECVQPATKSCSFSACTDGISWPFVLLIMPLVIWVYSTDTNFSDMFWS

| effect of a mutation on the interaction | Substance |
| --- | --- |
| decreasing interaction strength | Piezo-type mechanosensitive ion channel component 1 (Mus musculus), E2JF22 E2172A;K2173A;K2174A;Y2175A;P2176A;Q2177A;P2178A;K2179A;G2180A;Q2181A |
| decreasing interaction strength | Piezo-type mechanosensitive ion channel component 1 (Mus musculus), E2JF22 K2182A;K2183A;K2184A;K2185A |
